Results published in patent publication EP0672680A1.

Legend:
[1] = biological target: BK receptor derived from guinea pig ilea (guinea pig); assay: competition radioligand binding: inhibition of 3H-BK (200 pM) binding to guinea pig ileum membrane fraction; test compound at 10^-7 M
[2] = biological target: BK receptor derived from guinea pig ilea (guinea pig); assay: competition radioligand binding: inhibition of 3H-BK (200 pM) binding to guinea pig ileum membrane fraction; test compound at 10^-8 M
[3] = biological target: bovine lung-derived ANP receptor (bovine); assay: competition radioligand binding: displacement of 125I-rat ANP from bovine lung membrane fraction, filter assay
Sequence of bovine lung-derived ANP receptor (bovine) (P10730 42-537): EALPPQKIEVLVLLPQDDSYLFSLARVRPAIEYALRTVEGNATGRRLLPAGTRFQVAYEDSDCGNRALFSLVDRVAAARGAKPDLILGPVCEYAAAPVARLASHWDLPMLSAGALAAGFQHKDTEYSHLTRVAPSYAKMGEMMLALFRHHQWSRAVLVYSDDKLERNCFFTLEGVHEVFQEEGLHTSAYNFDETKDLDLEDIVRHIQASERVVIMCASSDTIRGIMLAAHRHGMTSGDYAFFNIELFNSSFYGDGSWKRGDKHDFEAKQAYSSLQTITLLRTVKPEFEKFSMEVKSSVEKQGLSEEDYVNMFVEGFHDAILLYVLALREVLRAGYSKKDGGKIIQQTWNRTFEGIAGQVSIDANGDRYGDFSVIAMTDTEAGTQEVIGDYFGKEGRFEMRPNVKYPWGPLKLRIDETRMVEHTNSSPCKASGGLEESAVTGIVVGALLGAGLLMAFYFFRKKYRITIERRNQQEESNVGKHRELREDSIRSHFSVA

Sequence of BK receptor derived from guinea pig ilea (guinea pig) (O70526 whole entry): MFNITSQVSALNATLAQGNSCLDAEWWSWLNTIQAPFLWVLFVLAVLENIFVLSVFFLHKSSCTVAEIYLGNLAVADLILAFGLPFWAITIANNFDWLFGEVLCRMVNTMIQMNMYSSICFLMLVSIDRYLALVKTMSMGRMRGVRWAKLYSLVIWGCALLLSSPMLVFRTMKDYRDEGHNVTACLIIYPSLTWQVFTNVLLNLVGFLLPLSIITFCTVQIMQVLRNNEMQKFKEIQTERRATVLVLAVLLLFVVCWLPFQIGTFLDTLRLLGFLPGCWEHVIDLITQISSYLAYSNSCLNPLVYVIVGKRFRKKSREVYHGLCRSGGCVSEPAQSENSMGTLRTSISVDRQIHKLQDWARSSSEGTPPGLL

Substance | Percentage inhibition (%) [1] | Percentage inhibition (%) [2] | IC50 [3]
compound (m) (H-D-Arg-Arg-Pro-Hyp-Gly-Phe-Ser-D-Phe-Leu-Arg-OH) (peptide) | 68% | 20% | –
compound (k) (H-Phe-Gly-Gly-Arg-(N-Me)Ile-Asp-Arg-Ile-NH2) (peptide) | – | – | 21 nM
compound (g) (H-Phe-Gly-Gly-Arg-Ile-Asp-Arg-Ile-NH2) (peptide) | – | – | 3.5 nM
compound (h) (H-Ala-Phe-Gly-Gly-Arg-Ile-Asp-Arg-Ile-Gly-Ala-Ala-NH2) (peptide) | – | – | 2.5 nM
